Results published in patent US20250361314A1 (SHANGHAI HUAOTA BIOPHARMACEUTICAL, published 2025).
Positions count from the first letter of the chain named. Values belong to the binder of their own block, whether it stands above or below them.

Tests used:
Assay in all cases: SPR (Biacore 8K), species cross test, antibody captured on anti-human capture CM5 chip, antigen as analyte, 1:1 model
Human CD39 antigen = biological target: T1, Human CD39 antigen (human, UniProt P49961 38-478)
T1 construct: Antigen used as analyte in SPR; also called ENTPD1
T1 sequence (looked up): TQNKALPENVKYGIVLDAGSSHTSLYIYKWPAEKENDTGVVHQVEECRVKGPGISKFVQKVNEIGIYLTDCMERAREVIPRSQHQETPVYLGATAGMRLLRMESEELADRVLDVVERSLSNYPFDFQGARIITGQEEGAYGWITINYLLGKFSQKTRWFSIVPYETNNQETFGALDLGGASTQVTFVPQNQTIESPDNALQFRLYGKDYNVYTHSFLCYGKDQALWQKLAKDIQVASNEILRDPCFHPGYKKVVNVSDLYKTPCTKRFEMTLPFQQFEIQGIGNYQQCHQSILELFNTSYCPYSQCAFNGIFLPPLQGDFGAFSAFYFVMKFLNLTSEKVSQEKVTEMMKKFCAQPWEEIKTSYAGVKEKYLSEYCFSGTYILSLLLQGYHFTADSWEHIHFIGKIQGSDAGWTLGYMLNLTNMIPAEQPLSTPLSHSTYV
Procedure: (§1) The experimental method is as follows:
(§2) An Anti-Human Capture-CM5 chip (GE, #BR-1005-30) was prepared using coupling methods of a Human Antibody Capture Kit (GE, #BR-1008-39) and an amino coupling kit (GE, BR-1000-50). The chip was equilibrated at room temperature for about 20-30 min and loaded into a Biacore 8K instrument. The antigen and antibody were diluted to an experimental working concentration using an equilibration buffer. The antigen was diluted with an equilibrium buffer to 50 nM, and then diluted three-fold for seven concentration gradients, and two zero concentrations (i.e., the equilibrium buffer) and one repeat concentration (typically the lowest concentration repeat) were set. Experimental analysis was performed on 10 antigen concentrations (2 zero concentrations, 7 gradient concentrations, and 1 repeated concentration) in a cyclic manner according to an order of antibody, antigen, and regeneration. The antigen injection flow rate was 30 μL/min, the binding time was 120 s, and the dissociation time was 600 s. Following the analysis, the data was analyzed using the corresponding analysis program to confirm that there was no obvious reference binding. Using Kinetics and a 1:1 binding model, the data was fit to obtain the kinetic related parameters Ka, Kd, and KD values of the bispecific antibodies.

Cynomolgus CD39 antigen = biological target: T2, Cynomolgus CD39 antigen (cynomolgus, UniProt A0A7N9DGH8 38-478)
T2 construct: Antigen used as analyte in SPR
T2 sequence: T1 sequence (looked up) with V10I, F57Y, V184I, I193T, I292V, K331N, A354S
Procedure: as §1, §2

Cynomolgus CD73 antigen = biological target: T3, Cynomolgus CD73 antigen (cynomolgus, UniProt A0A2K5V5U7 27-547)
T3 construct: Antigen used as analyte in SPR
T3 sequence: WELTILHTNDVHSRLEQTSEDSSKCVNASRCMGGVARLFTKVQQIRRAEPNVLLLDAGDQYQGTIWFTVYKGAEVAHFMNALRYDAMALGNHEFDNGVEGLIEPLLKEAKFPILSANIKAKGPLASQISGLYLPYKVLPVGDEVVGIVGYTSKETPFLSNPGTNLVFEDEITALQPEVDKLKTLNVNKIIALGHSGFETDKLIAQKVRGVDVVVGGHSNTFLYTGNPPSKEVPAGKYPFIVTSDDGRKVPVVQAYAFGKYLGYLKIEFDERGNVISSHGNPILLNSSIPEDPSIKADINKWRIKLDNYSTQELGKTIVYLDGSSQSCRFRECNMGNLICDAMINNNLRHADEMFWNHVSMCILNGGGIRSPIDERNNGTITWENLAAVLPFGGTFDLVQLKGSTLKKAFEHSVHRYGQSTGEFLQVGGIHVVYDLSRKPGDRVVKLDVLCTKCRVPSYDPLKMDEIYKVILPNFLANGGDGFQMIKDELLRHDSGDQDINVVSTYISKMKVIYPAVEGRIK
Procedure: as §1, §2

Human CD73 antigen = biological target: T4, Human CD73 antigen (human, UniProt P21589 27-547, limits assumed)
T4 construct: Antigen used as analyte in SPR; also called NT5E
T4 sequence (looked up): T3 sequence with T199M, A350T, I466V
Procedure: as §1, §2

B1: CD39/CD73 bispecific antibody 700035 (CD39-VHH-CD73-IgG) (bispecific antibody)
heavy: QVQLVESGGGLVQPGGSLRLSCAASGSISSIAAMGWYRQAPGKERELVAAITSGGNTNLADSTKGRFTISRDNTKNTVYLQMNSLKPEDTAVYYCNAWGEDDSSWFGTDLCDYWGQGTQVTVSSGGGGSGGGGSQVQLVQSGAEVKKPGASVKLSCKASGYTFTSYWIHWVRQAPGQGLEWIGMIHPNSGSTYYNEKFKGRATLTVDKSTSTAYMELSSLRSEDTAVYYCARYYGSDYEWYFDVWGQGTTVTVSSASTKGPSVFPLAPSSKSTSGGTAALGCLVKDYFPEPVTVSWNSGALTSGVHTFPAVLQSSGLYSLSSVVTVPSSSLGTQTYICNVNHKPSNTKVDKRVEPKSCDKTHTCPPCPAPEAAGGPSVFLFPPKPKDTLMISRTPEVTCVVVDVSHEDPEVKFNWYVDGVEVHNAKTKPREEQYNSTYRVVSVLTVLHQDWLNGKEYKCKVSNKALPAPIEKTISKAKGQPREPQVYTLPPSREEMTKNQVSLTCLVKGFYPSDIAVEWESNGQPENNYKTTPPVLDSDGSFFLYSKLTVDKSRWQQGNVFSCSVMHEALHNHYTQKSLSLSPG
light: DIQMTQSPSSMSASVGDRVTITCKASQNVRTAVVWYQQKPGKAPKALIYLASNRHTGVPDRFSGSGSGTDFTLTISSLQPEDFATYFCLQHWNYPYTFGQGTKLEIKRTVAAPSVFIFPPSDEQLKSGTASVVCLLNNFYPREAKVQWKVDNALQSGNSQESVTEQDSKDSTYSLSSTLTLSKADYEKHKVYACEVTHQGLSSPVTKSFNRGEC
- Kd (Human CD39 antigen): 0.0708 nM
- koff (Human CD39 antigen): 9.28e-05 s⁻¹
- kon (Human CD39 antigen): 1.31e+06 M⁻¹ s⁻¹
- Kd (Cynomolgus CD39 antigen): 2.61 nM
- koff (Cynomolgus CD39 antigen): 0.00161 s⁻¹
- kon (Cynomolgus CD39 antigen): 618000 M⁻¹ s⁻¹
- Kd (Cynomolgus CD73 antigen): 0.409 nM
- koff (Cynomolgus CD73 antigen): 0.000342 s⁻¹
- kon (Cynomolgus CD73 antigen): 836000 M⁻¹ s⁻¹
- Kd (Human CD73 antigen): 0.341 nM
- koff (Human CD73 antigen): 0.000319 s⁻¹
- kon (Human CD73 antigen): 935000 M⁻¹ s⁻¹

- Kd (Human CD39 antigen): 0.0918 nM
- koff (Human CD39 antigen): 9.54e-05 s⁻¹
- kon (Human CD39 antigen): 1.04e+06 M⁻¹ s⁻¹
- Kd (Cynomolgus CD39 antigen): 2.69 nM
- koff (Cynomolgus CD39 antigen): 0.00163 s⁻¹
- kon (Cynomolgus CD39 antigen): 606000 M⁻¹ s⁻¹
- Kd (Cynomolgus CD73 antigen): 0.326 nM
- koff (Cynomolgus CD73 antigen): 0.000148 s⁻¹
- kon (Cynomolgus CD73 antigen): 456000 M⁻¹ s⁻¹
- Kd (Human CD73 antigen): 0.425 nM
- koff (Human CD73 antigen): 0.000249 s⁻¹
- kon (Human CD73 antigen): 587000 M⁻¹ s⁻¹
B2: CD39/CD73 bispecific antibody 700038 (CD39-VHH-CD73-IgG) (bispecific antibody)
heavy: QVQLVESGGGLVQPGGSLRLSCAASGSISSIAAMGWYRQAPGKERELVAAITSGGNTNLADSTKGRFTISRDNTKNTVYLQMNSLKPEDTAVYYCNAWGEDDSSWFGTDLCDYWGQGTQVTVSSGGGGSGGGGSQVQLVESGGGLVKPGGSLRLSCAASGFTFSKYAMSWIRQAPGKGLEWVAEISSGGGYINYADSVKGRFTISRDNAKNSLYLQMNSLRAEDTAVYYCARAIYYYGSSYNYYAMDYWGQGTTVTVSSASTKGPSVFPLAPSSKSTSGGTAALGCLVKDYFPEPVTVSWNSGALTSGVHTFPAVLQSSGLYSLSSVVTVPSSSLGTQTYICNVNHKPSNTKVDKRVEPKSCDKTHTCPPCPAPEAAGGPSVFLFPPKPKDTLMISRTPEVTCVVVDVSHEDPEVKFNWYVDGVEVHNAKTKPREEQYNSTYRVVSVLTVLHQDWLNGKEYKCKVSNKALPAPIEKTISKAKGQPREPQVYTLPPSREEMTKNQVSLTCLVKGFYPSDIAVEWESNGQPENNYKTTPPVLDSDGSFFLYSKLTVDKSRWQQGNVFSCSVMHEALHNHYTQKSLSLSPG
light: DIQMTQSPSSLSASVGDRVTITCRASQDVGTAEAWYQQKPGKAPKLLIYWASTRHTGVPSRFSGSGSGTDFTLTISSLQPEDFATYYCQQYSSYPLTFGQGTKLEIKRTVAAPSVFIFPPSDEQLKSGTASVVCLLNNFYPREAKVQWKVDNALQSGNSQESVTEQDSKDSTYSLSSTLTLSKADYEKHKVYACEVTHQGLSSPVTKSFNRGEC
